{"source": "paper PMC5778499", "key": {"Pit-1ΔN [1]": {"target": "T1, Pit-1ΔN (UniProt P28069 105-291)", "T1 sequence": "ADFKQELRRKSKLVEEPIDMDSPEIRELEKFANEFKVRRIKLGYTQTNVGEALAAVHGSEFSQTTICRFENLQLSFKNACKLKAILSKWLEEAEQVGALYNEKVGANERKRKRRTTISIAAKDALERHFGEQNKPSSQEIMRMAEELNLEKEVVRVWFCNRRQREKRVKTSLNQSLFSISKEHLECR", "experiment": "competition"}, "Pit-1ΔN [2]": {"target": "T1, Pit-1ΔN", "experiment": "fluorescence anisotropy"}, "Pit-1ΔNΔC": {"target": "T2, Pit-1ΔNΔC (UniProt P28069 124-273)", "T2 sequence": "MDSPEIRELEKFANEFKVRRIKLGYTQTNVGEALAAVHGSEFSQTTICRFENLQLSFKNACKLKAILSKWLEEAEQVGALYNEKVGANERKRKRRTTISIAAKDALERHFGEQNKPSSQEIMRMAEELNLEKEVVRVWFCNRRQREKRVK", "experiment": "gel filtration"}, "Pit-1wt [3]": {"target": "T3, Pit-1wt (UniProt P28069 1-291)", "T3 sequence": "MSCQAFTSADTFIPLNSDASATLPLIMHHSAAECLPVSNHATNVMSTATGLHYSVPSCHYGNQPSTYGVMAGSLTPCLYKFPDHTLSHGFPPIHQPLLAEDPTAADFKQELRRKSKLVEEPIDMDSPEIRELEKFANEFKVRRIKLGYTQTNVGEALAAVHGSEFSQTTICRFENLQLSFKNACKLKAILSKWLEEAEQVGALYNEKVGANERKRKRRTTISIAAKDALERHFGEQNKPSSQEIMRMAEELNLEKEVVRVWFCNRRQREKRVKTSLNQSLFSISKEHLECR", "experiment": "fluorescence anisotropy"}, "Pit-1ΔN [4]": {"target": "T1, Pit-1ΔN", "experiment": "competition", "remark": "listed apart in the source"}, "Pit-1ΔN [5]": {"target": "T1, Pit-1ΔN", "experiment": "competition", "remark": "listed apart in the source"}, "Pit-1wt [6]": {"target": "T3, Pit-1wt", "experiment": "EMSA"}, "UHRF1": {"target": "T4, UHRF1 (UniProt Q96T88 1-793)", "T4 sequence": "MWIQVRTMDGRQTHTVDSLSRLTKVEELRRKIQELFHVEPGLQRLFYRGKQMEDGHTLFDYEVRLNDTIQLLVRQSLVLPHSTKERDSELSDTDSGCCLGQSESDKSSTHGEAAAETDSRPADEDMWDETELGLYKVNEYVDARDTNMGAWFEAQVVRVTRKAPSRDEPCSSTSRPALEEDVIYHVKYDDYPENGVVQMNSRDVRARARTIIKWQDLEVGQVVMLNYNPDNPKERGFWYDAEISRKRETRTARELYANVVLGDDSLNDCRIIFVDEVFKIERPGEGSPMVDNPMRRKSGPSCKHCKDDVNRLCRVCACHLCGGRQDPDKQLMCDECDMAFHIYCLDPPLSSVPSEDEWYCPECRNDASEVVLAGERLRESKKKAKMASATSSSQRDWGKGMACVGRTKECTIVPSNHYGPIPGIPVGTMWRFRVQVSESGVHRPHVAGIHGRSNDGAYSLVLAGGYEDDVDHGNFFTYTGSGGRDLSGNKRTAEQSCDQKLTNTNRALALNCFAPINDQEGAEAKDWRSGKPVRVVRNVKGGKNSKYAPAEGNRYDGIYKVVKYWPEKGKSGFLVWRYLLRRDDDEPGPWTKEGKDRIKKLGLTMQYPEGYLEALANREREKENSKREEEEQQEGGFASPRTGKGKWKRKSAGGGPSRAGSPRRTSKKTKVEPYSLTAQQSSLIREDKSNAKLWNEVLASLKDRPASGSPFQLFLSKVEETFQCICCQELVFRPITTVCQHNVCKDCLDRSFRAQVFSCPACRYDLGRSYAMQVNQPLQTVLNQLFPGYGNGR", "experiment": "EMSA"}, "Pit-1ΔN [7]": {"target": "T1, Pit-1ΔN", "experiment": "fluorescence anisotropy", "remark": "listed apart in the source"}}, "data": [{"binder": "u5x99 (dsDNA) DNA 1: TGTCCTCTTCCTGCTATGTCATGGCTTATCTTCTTTCACCCATTCATTCATTCATTCATTCAGCAGTATTAGTCAATGTCTCTTGTATGCCTGGCACCT DNA 2: AGGTGCCAGGCATACAAGAGACATTGACTAATACTGCTGAATGAATGAATGAATGAATGGGTGAAAGAAGATAAGCCATGACATAGCAGGAAGAGGACA", "values": [{"measurement": "binding result", "setting": "Pit-1ΔN [1]", "result": "binds"}]}, {"binder": "f4x (dsDNA) DNA 1: CACCCATTCATTCATTCATTCAG DNA 2: CTGAATGAATGAATGAATGGGTG", "values": [{"measurement": "binding result", "setting": "Pit-1ΔN [2]", "result": "binds"}]}, {"binder": "4xCATT crystallization duplex (f4xCrystF/f4xCrystRC) (dsDNA) DNA 1: CCATTCATTCATTCATTCGGA DNA 2: CCGAATGAATGAATGAATGGT", "values": [{"measurement": "binding result", "setting": "Pit-1ΔNΔC", "result": "binds"}]}, {"binder": "f0x (dsDNA) DNA 1: TGTCCTCTTCCTGCTATGTCATGGCTTATCTTCTTTCACCCAGCAGTATTAGTCAATGTCTCTTGTATGCCTGGCACCT DNA 2: AGGTGCCAGGCATACAAGAGACATTGACTAATACTGCTGGGTGAAAGAAGATAAGCCATGACATAGCAGGAAGAGGACA", "values": [{"measurement": "Kd", "setting": "Pit-1wt [3]", "result": 167, "unit": "nM"}]}, {"binder": "u4x (4xCATT) (dsDNA) DNA 1: CACCCATTCATTCATTCATTCAG DNA 2: CTGAATGAATGAATGAATGGGTG", "values": [{"measurement": "binding result", "setting": "Pit-1ΔN [4]", "result": "binds"}]}, {"binder": "uhGH (dsDNA) DNA 1: GAGGAGCTTCTAAATTATCCATTAGCACAAGCCCGTCAGTGGCCCCATGCATAAATGTACACAGAAACAG DNA 2: CTGTTTCTGTGTACATTTATGCATGGGGCCACTGACGGGCTTGTGCTAATGGATAATTTAGAAGCTCCTC", "values": [{"measurement": "binding result", "setting": "Pit-1ΔN [5]", "result": "binds"}]}, {"binder": "8xCATT 111 biotin (dsDNA) DNA 1: TGTCCTCTTCCTGCTATGTCATGGCTTATCTTCTTTCACCCATTCATTCATTCATTCATTCATTCATTCATTCAGCAGTATTAGTCAATGTCTCTTGTATGCCTGGCACCT DNA 2: AGGTGCCAGGCATACAAGAGACATTGACTAATACTGCTGAATGAATGAATGAATGAATGAATGAATGAATGGGTGAAAGAAGATAAGCCATGACATAGCAGGAAGAGGACA", "values": [{"measurement": "binding result", "setting": "Pit-1wt [6]", "result": "binds"}, {"measurement": "Kd", "setting": "UHRF1", "result": "> 1000", "unit": "nM"}]}, {"binder": "u8x111 (dsDNA) DNA 1: TGTCCTCTTCCTGCTATGTCATGGCTTATCTTCTTTCACCCATTCATTCATTCATTCATTCATTCATTCATTCAGCAGTATTAGTCAATGTCTCTTGTATGCCTGGCACCT DNA 2: AGGTGCCAGGCATACAAGAGACATTGACTAATACTGCTGAATGAATGAATGAATGAATGAATGAATGAATGGGTGAAAGAAGATAAGCCATGACATAGCAGGAAGAGGACA", "values": [{"measurement": "binding result", "setting": "Pit-1ΔN [1]", "result": "binds"}]}, {"binder": "f8x (dsDNA) DNA 1: CACCCATTCATTCATTCATTCATTCATTCATTCATTCAG DNA 2: CTGAATGAATGAATGAATGAATGAATGAATGAATGGGTG", "values": [{"measurement": "Kd", "setting": "Pit-1wt [3]", "result": 35, "unit": "nM"}, {"measurement": "Kd", "setting": "Pit-1ΔN [7]", "result": 27, "unit": "nM"}]}]}
